Each substance was assayed against MITF-M expressed in HEK293 cells from the pCI mammalian expression vector (human) (UniProt O75030) (assay: cell-based or functional assay).
UniProt O75030, sequence (O75030 other isoform, or with tags, fused parts or gaps limits assumed): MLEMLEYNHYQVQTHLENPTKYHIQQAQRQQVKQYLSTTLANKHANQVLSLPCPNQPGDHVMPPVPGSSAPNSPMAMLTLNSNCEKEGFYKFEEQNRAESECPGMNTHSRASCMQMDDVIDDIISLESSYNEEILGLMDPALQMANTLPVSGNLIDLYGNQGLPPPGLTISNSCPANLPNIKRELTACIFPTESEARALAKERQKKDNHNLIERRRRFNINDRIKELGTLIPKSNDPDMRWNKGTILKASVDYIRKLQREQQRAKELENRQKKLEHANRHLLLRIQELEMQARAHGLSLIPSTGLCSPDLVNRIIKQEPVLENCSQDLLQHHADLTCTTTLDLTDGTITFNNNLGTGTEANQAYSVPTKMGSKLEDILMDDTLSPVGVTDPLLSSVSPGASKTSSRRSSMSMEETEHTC

luciferase activity (firefly/renilla) in a reporter assay using BCL2 gene promoter, HEK293 cells, against cells transfected only with the MITF-M gene expression plasmid | Substance
1.4 fold | carboxy-terminal FLAG-tagged ELK4 protein expressed in HEK293 cells from pCI (from UniProt P28324 1-372)
1.5 fold | CLOCK expressed in HEK293 cells from the pCI mammalian cell expression vector (from UniProt O15516 1-846)
1.8 fold | carboxy-terminal FLAG-tagged HLF protein expressed in HEK293 cells from pCI (from UniProt Q16534 1-295)

From patent publication US20070259805A1
